From publication PMC6379665 (Nucleic Acids Research, 2018)

How the values were obtained:
Assay in all cases: AUC
[1] = molecular target: bacteriophage λ terminase protomer (TerL•TerS2), wild type (bacteriophage λ) (UniProt P03708)
[2] = molecular target: T1, bacteriophage λ terminase large subunit TerL^λ, wild type (bacteriophage λ, UniProt P03708 1-641)
T1 sequence (looked up): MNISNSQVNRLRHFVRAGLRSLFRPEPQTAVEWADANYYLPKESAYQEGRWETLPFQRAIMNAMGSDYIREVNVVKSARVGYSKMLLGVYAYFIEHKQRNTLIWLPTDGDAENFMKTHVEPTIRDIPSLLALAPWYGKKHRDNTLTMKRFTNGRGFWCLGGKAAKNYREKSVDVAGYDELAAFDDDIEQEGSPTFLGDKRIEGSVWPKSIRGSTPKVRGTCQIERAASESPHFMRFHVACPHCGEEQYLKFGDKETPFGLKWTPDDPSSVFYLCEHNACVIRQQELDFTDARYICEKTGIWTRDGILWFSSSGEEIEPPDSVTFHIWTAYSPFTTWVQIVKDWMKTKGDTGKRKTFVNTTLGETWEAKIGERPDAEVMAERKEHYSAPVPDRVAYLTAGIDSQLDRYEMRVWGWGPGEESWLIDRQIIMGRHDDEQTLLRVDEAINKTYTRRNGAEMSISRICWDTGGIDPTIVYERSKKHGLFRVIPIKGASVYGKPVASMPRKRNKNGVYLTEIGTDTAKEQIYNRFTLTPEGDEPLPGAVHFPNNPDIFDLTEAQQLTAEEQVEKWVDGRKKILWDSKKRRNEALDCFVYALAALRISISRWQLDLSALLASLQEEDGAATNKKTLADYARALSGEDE

[3] = molecular target: T2, bacteriophage λ terminase large subunit TerL^λ-E179Q (bacteriophage λ, UniProt P03708 1-641, E179Q)
T2 sequence (looked up): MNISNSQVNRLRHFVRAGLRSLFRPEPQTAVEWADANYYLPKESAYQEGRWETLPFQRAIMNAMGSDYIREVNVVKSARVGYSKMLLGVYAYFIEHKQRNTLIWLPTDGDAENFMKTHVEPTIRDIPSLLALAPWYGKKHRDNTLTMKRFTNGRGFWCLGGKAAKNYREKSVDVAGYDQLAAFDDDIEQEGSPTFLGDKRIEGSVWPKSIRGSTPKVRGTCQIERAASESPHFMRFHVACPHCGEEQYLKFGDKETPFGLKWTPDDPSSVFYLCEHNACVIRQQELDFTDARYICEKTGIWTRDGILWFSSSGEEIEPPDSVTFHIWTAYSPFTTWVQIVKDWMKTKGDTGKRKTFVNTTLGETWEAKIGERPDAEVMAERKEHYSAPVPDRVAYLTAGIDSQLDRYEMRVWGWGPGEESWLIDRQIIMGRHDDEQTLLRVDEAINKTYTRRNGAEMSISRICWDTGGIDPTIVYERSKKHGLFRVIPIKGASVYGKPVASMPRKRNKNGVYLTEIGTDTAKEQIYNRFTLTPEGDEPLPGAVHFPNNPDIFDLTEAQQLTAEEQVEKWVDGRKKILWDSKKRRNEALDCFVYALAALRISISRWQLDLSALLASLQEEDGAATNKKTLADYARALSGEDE

[4] = molecular target: T3, bacteriophage λ terminase large subunit TerL^λ-E179A (bacteriophage λ, UniProt P03708 1-641, E179A)
T3 sequence (looked up): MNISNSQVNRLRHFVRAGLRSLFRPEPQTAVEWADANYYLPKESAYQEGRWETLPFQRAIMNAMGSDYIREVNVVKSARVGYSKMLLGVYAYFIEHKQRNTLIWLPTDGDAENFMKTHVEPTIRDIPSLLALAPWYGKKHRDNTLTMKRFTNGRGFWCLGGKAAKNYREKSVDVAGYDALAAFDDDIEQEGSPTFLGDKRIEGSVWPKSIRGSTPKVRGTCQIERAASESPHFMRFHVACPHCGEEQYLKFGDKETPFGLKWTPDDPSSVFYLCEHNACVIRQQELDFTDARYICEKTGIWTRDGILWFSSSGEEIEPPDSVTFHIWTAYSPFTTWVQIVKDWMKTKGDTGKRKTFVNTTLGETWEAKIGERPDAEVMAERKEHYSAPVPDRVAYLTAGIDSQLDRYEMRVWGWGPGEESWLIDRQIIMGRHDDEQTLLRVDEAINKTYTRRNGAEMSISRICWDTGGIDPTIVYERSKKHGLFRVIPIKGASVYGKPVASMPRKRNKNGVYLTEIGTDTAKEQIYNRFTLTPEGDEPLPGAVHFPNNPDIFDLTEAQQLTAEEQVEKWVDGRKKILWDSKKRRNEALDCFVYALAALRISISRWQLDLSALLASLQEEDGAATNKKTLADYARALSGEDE

Molecule: bacteriophage λ terminase protomer (TerL•TerS2), wild type (from UniProt P03708 1-641; P03707 1-181) (complex)
- stoichiometry N [1]: 4

B1: bacteriophage λ terminase small subunit TerS (natural protein, UniProt P03707 1-181, looked up)
chain: MEVNKKQLADIFGASIRTIQNWQEQGMPVLRGGGKGNEVLYDSAAVIKWYAERDAEIENEKLRREVEELRQASEADLQPGTIEYERHRLTRAQADAQELKNARDSAEVVETAFCTFVLSRIAGEIASILDGLPLSVQRRFPELENRHVDFLKRDIIKAMNKAAALDELIPGLLSEYIEQSG
- binding result [2]: binds
- binding result [3]: binds
- binding result [4]: binds
